# T1: GST-HsPEX19 (human, UniProt P40855 1-299)
# T1 construct: human PEX19, expressed from pGEX4T1-HsPEX19; also called GST-tagged recombinant human PEX19; recombinant human GST-PEX19; source: E. coli BL21 (DE3), purified (Glutathione Agarose 4B)
# T1 sequence (looked up): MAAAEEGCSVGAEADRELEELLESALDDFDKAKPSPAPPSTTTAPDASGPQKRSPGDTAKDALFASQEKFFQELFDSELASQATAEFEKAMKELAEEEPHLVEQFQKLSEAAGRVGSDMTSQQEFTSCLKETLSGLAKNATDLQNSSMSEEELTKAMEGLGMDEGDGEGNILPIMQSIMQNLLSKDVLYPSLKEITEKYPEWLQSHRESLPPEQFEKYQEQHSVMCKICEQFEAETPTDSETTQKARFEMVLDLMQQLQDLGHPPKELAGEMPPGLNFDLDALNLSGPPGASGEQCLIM
# B1: TbPEX11 array peptides of BS1 (aa 13-35) (peptide)
# peptide: QTDGRDKILKAFSGVFKALGSLD
# notes: PEX11 of Trypanosoma brucei, residues 13-35 (BS1); on the array this stretch stood as consecutive overlapping 15-mers (2 aa shift), each on its own spot; source: synthetic peptides, synthesized on a cellulose membrane
# B2: TbPEX11 array peptides of BS3 (aa 139-159) (peptide)
# peptide: VLDVVALYGALQKRASDPATS
# notes: PEX11 of Trypanosoma brucei, residues 139-159 (BS3); on the array this stretch stood as consecutive overlapping 15-mers (2 aa shift), each on its own spot; source: synthetic peptides, synthesized on a cellulose membrane
# B3: TbPEX11 array peptides of BS2 (aa 77-99) (peptide)
# peptide: CRAKGKVNMKEVLKFLRVLCNFL
# notes: PEX11 of Trypanosoma brucei, residues 77-99 (BS2); on the array this stretch stood as consecutive overlapping 15-mers (2 aa shift), each on its own spot; source: synthetic peptides, synthesized on a cellulose membrane
# Target: T1, GST-HsPEX19
# Test: peptide or protein array; 15-mer peptides (2 aa shift) on a cellulose membrane; probed with 1 µM GST fusion or GST in TBS + 3% BSA + 0.05% Tween-20, 1 h at 4°C; detected with anti-GST antibody and chemiluminescence; at least three consecutive spots counted as a potential site
# Conditions: both partners purified
row,Binder,binding result
1,B1,binds
2,B2,binds
3,B3,binds

# Reference: PMC10469627, “Molecular basis of the glycosomal targeting of PEX11 and its mislocalization to mitochondrion in trypanosomes” (Frontiers in Cell and Developmental Biology, 2023)
